The values below come from publication PMC9504514, “Identification of a Potential Inhibitor (MCULE-8777613195-0-12) of New Delhi Metallo-β-Lactamase-1 (NDM-1) Using In Silico and In Vitro Approaches” (Molecules, 2022).

What is called Km is the substrate concentration at which the rate is half of its maximum. The kcat is the maximal rate divided by the concentration of active sites. Usually kcat/Km stands for the second-order rate constant that governs catalysis at low substrate concentration. By IC50 is commonly meant the concentration at which inhibition is half-maximal. A high value points to lower potency.

Data set [1] concerns CO/N=C(\C(=O)N[C@@H]1C(=O)N2C(C(=O)O)=C(COC(C)=O)CS[C@H]12)c1csc(N)n1. Briefly: steady-state hydrolysis kinetics (Km) with purified NDM-1. The format is biochemical, Klebsiella pneumoniae. The settings on record: Zn2+ (two zinc ions).
Data set [2] concerns C[C@@H](O)[C@H]1C(=O)N2C(C(=O)O)=C(SCCN=CN)C[C@H]12. The data set is described as above. The format is biochemical, Klebsiella pneumoniae. The settings on record: Zn2+ (two zinc ions).
The subject of data set [3] is C[C@@H](O)[C@H]1C(=O)N2C(C(=O)O)=C(S[C@@H]3CN[C@H](C(=O)N(C)C)C3)[C@H](C)[C@H]12. Described as above. Type of data set: biochemical, Klebsiella pneumoniae. The settings on record: Zn2+ (two zinc ions) substrate binding site (docking).
Data set [4] concerns CC1(C)S[C@@H]2[C@H](NC(=O)[C@H](N)c3ccccc3)C(=O)N2[C@H]1C(=O)O. Described as above. The format is biochemical, Klebsiella pneumoniae. The settings on record: Zn2+ (two zinc ions).
Data set [5] concerns the target T1, New Delhi metallo-β-lactamase-1 (NDM-1) (Klebsiella pneumoniae, UniProt C7C422).
T1 construct: gene blaNDM-1
Put plainly: biochemical.

Data set [6] deals with T1, New Delhi metallo-β-lactamase-1 (NDM-1). Briefly: steady-state hydrolysis kinetics (Km) with purified NDM-1. The format is biochemical.

T1 sequence (C7C422 29-270 limits assumed): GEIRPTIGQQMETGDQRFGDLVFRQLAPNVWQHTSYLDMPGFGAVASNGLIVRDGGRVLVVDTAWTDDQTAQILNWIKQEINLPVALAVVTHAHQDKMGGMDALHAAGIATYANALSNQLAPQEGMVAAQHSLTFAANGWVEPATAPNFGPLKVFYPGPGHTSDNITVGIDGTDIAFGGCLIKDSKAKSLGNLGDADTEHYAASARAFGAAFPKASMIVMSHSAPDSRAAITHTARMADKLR

With “New Delhi metallo-β-lactamase-1 (NDM-1) (Klebsiella pneumoniae)”, the Km in data set [1] was found to be 61.6 ± 5.8 µM; in data set [2] it was 83.9 ± 6.7 µM; in data set [3], 58.3 ± 5.2 µM; in data set [4], 99.4 ± 7.6 µM. Further, the kcat is 413 ± 28.1 s⁻¹ in data set [1], 700 ± 18.7 s⁻¹ in data set [2], 301 ± 11.9 s⁻¹ in data set [3] and 392 ± 25.7 s⁻¹ in data set [4]. Moreover, the kcat/Km in data set [1] was 6.7e+06 ± 270000 M⁻¹ s⁻¹; in data set [2] it was 8.34e+06 ± 640000 M⁻¹ s⁻¹; in data set [3], 5.17e+06 ± 330000 M⁻¹ s⁻¹; in data set [4] it was 3.94e+06 ± 140000 M⁻¹ s⁻¹.

`N#CC1=Cc2ccccc2[C@@H]2NN3C(C#N)=Cc4ccccc4[C@@H]3NN12` [MCULE-8777613195-0-12, [3R,14R]-1,2,12,13-tetrazapentacyclo [12.8.0.03,12.04,9.015,20]docosa-4,6,8,10,15,17,19,21-octaene-11,22-dicarbonitrile]: in data set [5], the IC50 worked out at 54.2 ± 6.3 µM.

As to `O=C(Cc1cccs1)N[C@@H]1C(=O)N2C(C(=O)O)=C(/C=C/c3ccc([N+](=O)[O-])cc3[N+](=O)[O-])CS[C@H]12` [nitrocefin], the Km in data set [6] came to 27.1 ± 2.1 µM.
